Source: the RNAGym collection of RNA variant scans (doi:10.7554/elife.90254)

B1: LINE1-full (parent)
chain: UACGUAGGUGGUUUUCCCCUGAUAGUGCUAAGGGGGCCUGGAAGUUUGGACUGGGCAGAGCUCAACACAGCGUGGCAAAGUGGCUGUGGCUAGACUGCCUCUCUGGAUUCCUCGUCACUCAGCAGGGCAUCUCUGAGAGAAAUGCC

Variants of: B1
Experiment: self-cleavage, relative activity (ratio to wild type); higher = more cleavage; in vitro, sequencing; the parent is a self-cleaving ribozyme

Row | Variant | self-cleavage
1 | U39C A78U | 1.42
2 | A78G A124G | 0.99
3 | A42U U134C | 1.34
4 | A92C U102C | 0.14
5 | U47A A107U | 1.79
6 | U62C U109C | 0.08
7 | U15A U45C | 0.66
8 | G49A A64U | 0.33
9 | C19A U108C | 1.46
10 | A30G U46C | 1.06
11 | U9C A92C | 0.48
12 | A64G C116A | 0.1
13 | U12A U96C | 0.28
14 | A77U U112A | 1.1
15 | A57C A94G | 0.25
16 | C99U C101U | 1
17 | U12C U96G | 0.28
18 | A117U A121G | 1.81
19 | U26A U115A | 1.07
20 | U26C G74U | 1.42
21 | U9A C116U | 0.95
22 | U9A G88A | 0.12
23 | U39C A65G | 0.09
24 | G54U G82A | 1.26

Row | Variant | self-cleavage
25 | A6G G144A | 1.21
26 | C3U U134C | 1.05
27 | U23G A140G | 1.27
28 | U102G A121G | 0.59
29 | U102C U143G | 1.59
30 | A31U C110A | 0.91
31 | A124U U143A | 1.75
32 | A43G A65U | 0.15
33 | A69G A107U | 0
34 | U14C G93U | 0.06
35 | A77C U108C | 1.6
36 | U26A G32A | 0.44
37 | U100A C118U | 0.98
38 | G82A U91C | 0.94
39 | U104C A117U | 1.73
40 | U46C A129U | 1.27
41 | U81G G122U | 1.42
42 | C51A A67U | 0.1
43 | A31U U108C | 1.3
44 | G25A A59G | 0.09
45 | G35C A67G | 0.22
46 | U96G U134C | 0.23
47 | U91C A124C | 0.69
48 | C103U A117C | 2.49

Row | Variant | self-cleavage
49 | G34A A67G | 0.35
50 | U119A A138G | 2.02
51 | G97A U130C | 0.19
52 | C3U A69U | 0.13
53 | U52C A64C | 0.51
54 | U13A U102G | 0.41
55 | A42U U96C | 0.06
56 | A78U A107G | 2.47
57 | U62C U132A | 0.05
58 | G21A C146U | 1.56
59 | C61U U81A | 0.02
60 | U130C A142G | 1.37
61 | G89C G122C | 0.02
62 | G53U U81C | 2
63 | G75A U132A | 1.15
64 | U62A U81A | 0.05
65 | U112A C113U | 1.6
66 | A6G U143C | 0.57
67 | A59G C133A | 0.04
68 | G53A A121U | 1.7
69 | U39C G122C | 0.96
70 | U109G | 0.63
71 | U96C A107U | 0.17
72 | G8A C120U | 2.87

Row | Variant | self-cleavage
73 | A69G A78G | 0.25
74 | U13A G55A | 0.21
75 | U29C G122U | 1.35
76 | U12C A69G | 0.64
77 | G35C U134A | 0.71
78 | U96C | 0.13
79 | U46C A124U | 1.25
80 | U73C C98U | 0.36
81 | U73A A78C | 2.67
82 | A22G C66U | 0.07
83 | U62A U130A | 0.03
84 | U20A A92G | 0.05
85 | U26A A136G | 1.57
86 | A77U U81A | 1.89
87 | G53A A141G | 1.26
88 | G40A A129C | 1.63
89 | U85C U96A | 0.07
90 | U108C A138U | 1.68
91 | A50U U112A | 1.15
92 | C101U U130C | 1.54
93 | A67G C110U | 0.46
94 | U29C A136G | 0.92
95 | G49A U85C | 0.1
96 | U5A U81C | 0.99

Row | Variant | self-cleavage
97 | A67C A129G | 0
98 | U15A A22C | 0.85
99 | A65G U102G | 0
100 | U47A A59G | 0.05
101 | G48A U102A | 1.71
102 | C123U A124G | 1.25
103 | A2G A22G | 0.97
104 | C76U C98U | 0.61
105 | A117G A141U | 1.69
106 | U29C U100A | 1.42
107 | C66U U115C | 0.01
108 | U12A A124U | 1.23
109 | U9A A67U | 0.25
110 | G33U U130A | 0.9
111 | U1A U96G | 0
112 | U15C U132A | 1.89
113 | U14C A42U | 1.02
114 | U62A A136G | 0.03
115 | U20C G55A | 0.25
116 | C56U U73C | 0.25
117 | U81A U108C | 2.2
118 | U15C U20A | 1.12
119 | U15C U20C | 1.33
120 | U13C A129U | 1.13

Row | Variant | self-cleavage
121 | U62C U73G | 0.06
122 | U81C A117C | 1.59
123 | G125U U143C | 1.08
124 | A50G U132A | 1.34
125 | A30G G48A | 0.5
126 | C19U U45A | 1.43
127 | G33A U45A | 0.86
128 | G86A A140G | 0.03
129 | U20C U104C | 1.51
130 | U12G U45A | 1.3
131 | A42U U132C | 1.01
132 | A77U U91C | 0.6
133 | A31U A136G | 0.79
134 | U46A U96A | 0.05
135 | A117U A124G | 1.3
136 | U96A C111U | 0.07
137 | A2U U14C | 0.83
138 | C17G U91C | 0.38
139 | C84U U109C | 0.1
140 | A92U U96C | 0.11
141 | U52A U104A | 2.03
142 | A6U U39A | 1.16
143 | U14A C99G | 0.63
144 | A42G A141G | 1.38

Row | Variant | self-cleavage
145 | U115C A129C | 1.68
146 | C56U U134C | 0.23
147 | A42U U115C | 1.15
148 | A107G A142G | 1.83
149 | G33C A59G | 0
150 | C38A A141U | 1.49
151 | U46C A138U | 1.65
152 | C3U U109A | 0.93
153 | G35A U108C | 1.11
154 | U14A U15C | 1.02
155 | C16U | 1.12
156 | C63U A129G | 0.3
157 | U39A A59G | 0.08
158 | G4A A107U | 0.2
159 | U87C C145A | 0.27
160 | A65G C71G | 0.05
161 | A22U U26A | 0.5
162 | U1A U20A | 0.81
163 | C37U C146U | 1.27
164 | A121U G125U | 1.4
165 | G27A U96C | 0.1
166 | G82A A129U | 1.21
167 | A30G A142U | 0.99
